Measured values from patent publication US20140242093A1, “METHODS AND COMPOSITIONS FOR MODULATING THE INNATE IMMUNE RESPONSE AND/OR MYOGENESIS IN A MAMMALIAN SUBJECT” (FRED HUTCHINSON CANCER RESEARCH CENTER, priority 2011, published 2014).

Tested on: control human primary myoblasts
Assay: Expression microarray of primary myoblasts transduced with lentivirus carrying DUX4-fl, DUX4-s or GFP
Procedure: Primary human myoblasts were collected and cultured as previously described (Snider et al., 2010). Primary myoblasts were maintained at or below 70% confluency for proliferation. For differentiation, cells were allowed to reach 95-100% confluency in growth medium. Once confluency was reached, the cells were changed to differentiation medium (F10 media supplemented with 1% horse serum, 10 μg/mL insulin, and 10 μg/mL transferrin, penicillin/streptomycin) and maintained for 4 days. Human RD cells were grown in DMEM in 10% bovine calf serum (Hyclone) and penicillin/streptomycin. The primary myoblasts were transduced with lentivirus carrying DUX-fl, DUX4- or GFP (MOI=15).
Expression microarrays were performed on the transduced cells at 24 hours after transduction as follows. […] Samples were analyzed by Illumina Human Whole Genome microarrays. Probe intensities were corrected, normalized, and summarized by the Lumi package of Bioconductor (Du et al., 2008). Differentially expressed genes were identified by the LIMMA package of Bioconductor (Wettenhall and Smyth, 2004). Gene set enrichment analysis (GSEA) was performed using the Bioconductor GOstats package (Falcon and Gentleman, 2007).

[1] = 2-fold change and FDR<0.01 vs lenti-GFP, 24 hours after transduction
[2] = 3-fold criteria (>1.584 log2-fold change and FDR<0.01)

B1: DUX4-s: short splice form of DUX4 (SEQ ID NO:112), keeps the double-homeobox domains, lacks the C-terminal activation domain (protein, listed as Homo sapiens)
chain: MALPTPSDSTLPAEARGRGRRRRLVWTPSQSEALRACFERNPYPGIATRERLAQAIGIPEPRVQIWFQNERSRQLRQHRRESRPWPGRRGPPEGRRKRTAVTGSQTALLLRAFEKDRFPGIAAREELARETGLPESRIQIWFQNRRARHPGQGGRAPAQV
- number of genes with decreased expression [1]: 45 genes
- number of genes with increased expression [1]: 159 genes
- number of genes decreased [2]: one
- number of genes increased [2]: 37 genes
- BQ437417 (no symbol given) expression fc (Refseq BQ437417, cultured human skeletal muscle): −0.126
- fc of ACVRL1 (expression array) (Refseq NM_000020.1): 0.06199
- fc of C3 (expression array) (Refseq NM_000064.1): 0.2479
- CA2 expression fc (Refseq NM_000067.1): 0.1046
- fc of COL1A1 (expression array) (Refseq NM_000088.3): −1.257
- CST3 fc (Refseq NM_000099.2): 0.1574
- ENG fc (Refseq NM_000118.1): 0.4927
- fc of GAMT (expression array) (Refseq NM_000156.4): −0.3529
- GBE1 fc (Refseq NM_000158.2): 0.4818
- fc of IDS (expression array) (Refseq NM_000202.3): 0.6655
- KCNA1 expression fc (Refseq NM_000217.2): 0.02842
- SGCG expression fc (Refseq NM_000231.1): 0.125
- NP expression fc (Refseq NM_000270.1): 0.2279
- fc of PTEN (expression array) (Refseq NM_000314.4): −0.3029
- SLC3A1 expression fc (Refseq NM_000341.2): 0.003792
- SOX9 expression fc (Refseq NM_000346.2): −0.3086
- fc of PAFAH1B1 (expression array) (Refseq NM_000430.2): −1.237
- HBA2 expression fc (Refseq NM_000517.3): 0.09333
- fc of HBB (expression array) (Refseq NM_000518.4): 1.196
- HBA1 expression fc (Refseq NM_000558.3): 0.08066
- IL8 expression fc (Refseq NM_000584.2, cultured human skeletal muscle): 1.186
- fc of IL15 (expression array) (Refseq NM_000585.2): −0.1029
- TAP1 expression fc (Refseq NM_000593.5, cultured human skeletal muscle): 0.6996
- fc of IL6 (expression array) (Refseq NM_000600.1): 1.198
- IL10RB fc (Refseq NM_000628.3): −0.05056
- fc of ALDH2 (expression array) (Refseq NM_000690.2): 0.2053
- fc of ANXA1 (expression array) (Refseq NM_000700.1): 0.08537
- fc of CYP2J2 (expression array) (Refseq NM_000775.2): 1.127
- fc of GAS6 (expression array) (Refseq NM_000820.1): −0.3187
- fc of MME (expression array) (Refseq NM_000902.3): −0.184
- P4HB fc (Refseq NM_000918.3): −0.1927
- PTGFR fc (Refseq NM_000959.3): 0.1496
- TOP2A fc (Refseq NM_001067.2): −0.6065
- TYMS fc (Refseq NM_001071.1): −0.09199
- VCAM1 expression fc (Refseq NM_001078.2, cultured human skeletal muscle): 0.6349
- ALOX15B fc (Refseq NM_001141.2): 0.4518
- ANPEP expression fc (Refseq NM_001150.1, cultured human skeletal muscle): 0.3635
- ART3 expression fc (Refseq NM_001179.3): 0.09073
- CA12 expression fc (Refseq NM_001218.3, cultured human skeletal muscle): 0.954
- fc of CASP4 (expression array) (Refseq NM_001225.3): 0.6908
- CD68 fc (Refseq NM_001251.1): 1.175
- CLIC1 fc (Refseq NM_001288.4): 0.3089
- CXADR expression fc (Refseq NM_001338.3): −0.07005
- DPYSL2 fc (Refseq NM_001386.4): 0.2285
- EMP3 fc (Refseq NM_001425.1): −0.2096
- FLT3LG fc (Refseq NM_001459.2): 0.3873
- CXCL1 expression fc (Refseq NM_001511.1, cultured human skeletal muscle): 0.2028
- fc of HAS1 (expression array) (Refseq NM_001523.1): 0.217
- PRMT2 fc (Refseq NM_001535.2): 0.07412
- NDST1 fc (Refseq NM_001543.3): −0.6912
- IFIT2 expression fc (Refseq NM_001547.4, cultured human skeletal muscle): 2.07
- IFIT1 expression fc (Refseq NM_001548.3, cultured human skeletal muscle): 0.7206
- IFIT3 expression fc (Refseq NM_001549.2, cultured human skeletal muscle): 1.806
- IFRD1 expression fc (Refseq NM_001550.2): −0.192
- IGFBP4 expression fc (Refseq NM_001552.2, cultured human skeletal muscle): 0.4048
- fc of CXCL10 (expression array) (Refseq NM_001565.2): 3.235
- AARS fc (Refseq NM_001605.2): 0.2776
- ACP2 fc (Refseq NM_001610.1): 0.2225
- TRIM23 expression fc (Refseq NM_001656.3): 0.6303
- ARSD fc (Refseq NM_001669.2): −0.2052
- fc of AUH (expression array) (Refseq NM_001698.1): 0.1604
- CFB expression fc (Refseq NM_001710.4, cultured human skeletal muscle): 0.6337
- C1R expression fc (Refseq NM_001733.4, cultured human skeletal muscle): 0.4933
- CAV1 fc (Refseq NM_001753.3): −0.1911
- fc of RUNX1 (expression array) (Refseq NM_001754.3): −1.047
- fc of CCND2 (expression array) (Refseq NM_001759.2): −0.5282
- CD9 expression fc (Refseq NM_001769.2): −0.004788
- CDH11 fc (Refseq NM_001797.2): 0.2419
- HBEGF expression fc (Refseq NM_001945.1): −0.07673
- ECGF1 expression fc (Refseq NM_001953.2, cultured human skeletal muscle): 0.6156
- EGR1 expression fc (Refseq NM_001964.2): 0.02651
- ETV6 fc (Refseq NM_001987.4): −0.05533
- EYA3 expression fc (Refseq NM_001990.2): −0.01672
- fc of ACSL1 (expression array) (Refseq NM_001995.2): 0.147
- FES fc (Refseq NM_002005.2): −0.3314
- FTH1 expression fc (Refseq NM_002032.2, cultured human skeletal muscle): −0.4183
- GTF2F1 expression fc (Refseq NM_002096.1): 0.29
- HLA-A fc (Refseq NM_002116.5): 0.5577
- HMOX1 expression fc (Refseq NM_002133.1, cultured human skeletal muscle): 0.9838
- HOXB2 expression fc (Refseq NM_002145.3): −0.04069
- HSPA6 expression fc (Refseq NM_002155.3): 0.128
- ID2 expression fc (Refseq NM_002166.4): 0.2756
- fc of IFNB1 (expression array) (Refseq NM_002176.2): 1.044
- INSM1 expression fc (Refseq NM_002196.2): 0.2306
- IRF1 expression fc (Refseq NM_002198.1, cultured human skeletal muscle): 0.3563
- ISG20 expression fc (Refseq NM_002201.4, cultured human skeletal muscle): 2.357
- fc of ITGA3 (expression array) (Refseq NM_002204.1): 0.1268
- fc of JUNB (expression array) (Refseq NM_002229.2): 0.5152
- JUP expression fc (Refseq NM_002230.1): −0.1057
- KPNA2 expression fc (Refseq NM_002266.2): −0.5075
- fc of LAMC1 (expression array) (Refseq NM_002293.2): −1.061
- fc of LSS (expression array) (Refseq NM_002340.3): −0.007301
- LTBR fc (Refseq NM_002342.1): 0.4061
- LUM fc (Refseq NM_002345.3): 0.3869
- LY6E expression fc (Refseq NM_002346.1, cultured human skeletal muscle): 0.2484
- fc of MDM2 (expression array) (Refseq NM_002392.2): 1.078
- MX1 expression fc (Refseq NM_002462.2, cultured human skeletal muscle): 0.2624
- MX2 expression fc (Refseq NM_002463.1, cultured human skeletal muscle): 0.9576
- fc of MYF6 (expression array) (Refseq NM_002469.1): −0.0236
- MYOD1 fc (Refseq NM_002478.4): −0.462
- NFYA expression fc (Refseq NM_002505.3): 0.9153
- OAS2 expression fc (Refseq NM_002535.2, cultured human skeletal muscle): 0.4553
- ODC1 expression fc (Refseq NM_002539.1): −0.2008
- PDE4B fc (Refseq NM_002600.3): 0.6757
- PFKP fc (Refseq NM_002627.3): 0.7759
- PIM1 expression fc (Refseq NM_002648.2): −0.6756
- EXOSC10 expression fc (Refseq NM_002685.2): 0.2771
- PNN expression fc (Refseq NM_002687.3): 0.04413
- PRKD1 fc (Refseq NM_002742.2): −0.6085
- PSMB9 expression fc (Refseq NM_002800.4, cultured human skeletal muscle): 0.9451
- PTX3 expression fc (Refseq NM_002852.2, cultured human skeletal muscle): 0.9442
- PYGB expression fc (Refseq NM_002862.3, cultured human skeletal muscle): −0.118
- fc of RAB13 (expression array) (Refseq NM_002870.2): 0.3496
- fc of RBMS1 (expression array) (Refseq NM_002897.3): 1.104
- fc of RBMS2 (expression array) (Refseq NM_002898.2): 1.448
- RXRA fc (Refseq NM_002957.3): −0.3202
- CCL2 expression fc (Refseq NM_002982.3, cultured human skeletal muscle): 0.4355
- CCL5 expression fc (Refseq NM_002985.2, cultured human skeletal muscle): 1.889
- CXCL6 expression fc (Refseq NM_002993.2, cultured human skeletal muscle): 0.1728
- CXCL5 expression fc (Refseq NM_002994.3, cultured human skeletal muscle): 0.824
- SLC2A5 expression fc (Refseq NM_003039.1, cultured human skeletal muscle): 0.8141
- SLC22A4 fc (Refseq NM_003059.2): 0.3817
- SNAI2 expression fc (Refseq NM_003068.3, cultured human skeletal muscle): 0.2027
- fc of SMARCD3 (expression array) (Refseq NM_003078.3): −0.3421
- SNRNP70 expression fc (Refseq NM_003089.4): 0.01776
- SOX4 expression fc (Refseq NM_003107.2): −0.2174
- SPG7 fc (Refseq NM_003119.2): −0.2796
- SRP19 expression fc (Refseq NM_003135.1): 0.227
- fc of STRN (expression array) (Refseq NM_003162.2): 1.092
- THBS1 fc (Refseq NM_003246.2): −0.5659
- UBA7 expression fc (Refseq NM_003335.2, cultured human skeletal muscle): 0.5729
- fc of UGCG (expression array) (Refseq NM_003358.1): 1.447
- WEE1 fc (Refseq NM_003390.2): 0.3325
- WNT5A fc (Refseq NM_003392.3): −0.3993
